Where a chain is given by its changes, count along the chain named. In names and notes the source's numbering stands. Marks after values point to notes of the source that are not given here.
B1: PYR1^Y58H;K59R;V81I;F108A;S122G;M158V;F159V;A160V;T162D: PYR1 mutant with 9 mutations (protein, listed as Arabidopsis thaliana)
chain: MPSELTPEERSELKNSIAEFHTYQLDPGSCSSLHAQRIHAPPELVWSIVRRFDKPQTHRHFIKSCSVEQNFEMRVGCTRDIIVISGLPANTSTERLDILDDERRVTGASIIGGEHRLTNYKGVTTVHRFEKENRIWTVVLESYVVDMPEGNSEDDTRVVVDDVVKLNLQKLATVAEAMARNSGDGSGSQVT
B2: PYR1^Y58H;K59R;V81I;F108A;S122G;M158I;F159V;A160C;T162D: PYR1 mutant with 9 mutations (protein, listed as Arabidopsis thaliana)
chain: B1 chain with V158I, V160C

Tested on: HAB1^!-2
Assay: Yeast two hybrid, mandipropamid-promoted interaction of PYR1 variants with HAB1^!-2
Format: cell-based
Settings: for mandipropamid concentration to which the interaction responds: FIG. 3, FIG. 4; for relative mandipropamid sensitivity among selected mutants: β-galactosidase assays on different mandipropamid concentrations
Source text: To engineer orthogonal mandipropamid responsiveness, we introduced the PYR1^! mutation into the PYR1^MANDI receptor to create a septuple mutant called PYR1^!-MANDI (PYR1^Y58H;K59R;V81I;F108A;S122G;F159L;T162D). This mutant interacts with HAB1^! and HAB^!-2 in response to low μM mandipropamid in yeast two-hybrid assays, but is ˜100-fold less sensitive than the PYR1^MANDI/HAB1 interaction, which responds to concentrations in the low nM range (FIG. 3).
To improve sensitivity, we mutagenized ligand contacting and interface residues in PYR1^!-MANDI using NNK primers, pooled the mutant libraries, and used the mutagenized receptors in selection experiments using to identify enhancer mutations. The NNK mutagenesis screen targeted the following residues: P55, H60, F61, I62, K63, V83, S85, G86, L87, P88, A89, S92, E94, I110, H115, R116, L117, Y120, E141, P148, G150, N151, D154, D155, T156, M158, A160, V163, V164, L166, N167, and K170. […] Since M158 and A160 flank the […] mutation present in PYR1^MANDI, we inferred that the closely located orthogonalizing T162D mutation in PYR1^!-MANDI may have reduced mandipropamid sensitivity by altering the local structure of the C-terminal α3-helix, which participates in ligand-induced conformational changes needed for PP2C binding (Nishimura et al., 2009). We therefore simultaneously mutagenized positions M158, F159 and A160 using a primer with degenerate NNK codons at all three positions. F159 was included in this mutagenesis because we have previously observed that multiple substitutions at F159 (A,C,I,L,M,T, or V) are permissive for mandipropamid responsiveness (S. Y. Park et al., n.d.), and sought to test whether residues other than leucine at position 159 might function better in the context of simultaneous changes to both A160 and M158. The mutagenic primer was used in QuickChange mutagenesis reactions using pBD-PYR1^!-MANDI template, and a library of ˜12,000 clones was generated. Plasmid DNA for the library was prepared from pooled E. coli transformants, and subsequently transformed into S. cerevisiae strain MAV99 harboring pACT-HAB1^!-2. ˜20,000 yeast transformants were generated, pooled, and plated onto SD(-Leu,-Trp) agar media supplemented with 0.1% fluorotic acid (to select against mutants that interact in a ligand-independent fashion). The surviving cells were collected and plated onto SD(Leu,-Trp,-Ura) plates supplemented with 50 nM mandipropamid. The colonies displaying the best uracil-independent growth were isolated and retested on different mandipropamid concentrations and then stained in β-galactosidase assays to rank their relative strength.

Row | Molecule | mandipropamid concentration to which the interaction responds | relative mandipropamid sensitivity among selected mutants
1 | B1 | nM responses | slightly less sensitive than PYR1*^-MANDI
2 | B2 | nM responses | slightly less sensitive than PYR1*^-MANDI
